Measured values taken from patent US20250043026A1 (SHANGHAI BAO PHARMACEUTICALS, published 2025).

Target: FcRn (Acro Biosystems) (human, UniProt P55899 24-297; P61769 21-119)
Test: BLI (Fortebio), FcRn loaded on HIS1K probe, pH 7.0
Procedure: The variant proteins were tested for affinity to FcRn at pH 7.0. The affinity of the antibody fragment for the receptor was determined using Fortebio. FcRn (Acro Biosystems) was loaded at 0.8 nm with an HIS1K probe, bound to the variant protein at various concentrations for 60 seconds and dissociated for 300 seconds.

kon [M⁻¹ s⁻¹] | Binder
272000 | Fc variant m3 (other, N-glycan with 2,6-sialic acid (variant co-expressed with human GT and ST in ExpiCHO-S cells), Fc fragment variant of IgG1) DKTHTCPPCPAPELLGGPSVALFPPKPKDTLYITREPEVTCVVVDVSHEDPEVKFNWYVDGVEVHNAKTKPREEQYNSTYRVVSVLTVLHQDWLNGKEYKCKVSNKALPAPIEKTISKAKGQPREPQVYTLPPSRDELTKNQVSLTCLVKGFYPSDIAVEWESNGQPENNYKTTPPVLDSDGSFFLYSKLTVDKSRWQQGNVFSCSVMHEALKFHYTQKSLSLSP
298000 | Fc variant m4 (other, N-glycan with 2,6-sialic acid (variant co-expressed with human GT and ST in ExpiCHO-S cells), Fc fragment variant of IgG1) DKTHTCPPCPAPELLGGPSVFLAPPKPKDTLYITREPEVTCVVVDVSHEDPEVKFNWYVDGVEVHNAKTKPREEQYNSTYRVVSVLTVLHQDWLNGKEYKCKVSNKALPAPIEKTISKAKGQPREPQVYTLPPSRDELTKNQVSLTCLVKGFYPSDIAVEWESNGQPENNYKTTPPVLDSDGSFFLYSKLTVDKSRWQQGNVFSCSVMHEALKFHYTQKSLSLSP
221000 | Fc variant m10 (other, Fc fragment variant of IgG1, co-expressed with human GT and ST) DKTHTCPPCPAPELLGGPSVFLFPPKPKDTLYITREPEVTCVVVDVSHEDPEVKFNWYVDGVEVHNAKTKPREEQYNNASRVVSVLTVLHQDWLNGKEYKCKVSNKALPAPIEKTISKAKGQPREPQVYTLPPSRDELTKNQVSLTCLVKGFYPSDIAVEWESNGQPENNYKTTPPVLDSDGSFFLYSKLTVDKSRWQQGNVFSCSVMHEALKFHYTQKSLSLSP

The remaining lines, values behind:

Binder | kon [M⁻¹ s⁻¹]
Fc variant m8 (other, Fc fragment variant of IgG1, co-expressed with human GT and ST) DKTHTCPPCPAPELLGGPSVFLFPPKPKDTLYITREPEVTCVVVDVSHEDPEVKFNWYVDGVEVHNAKTKPREEQANSTYRVVSVLTVLHQDWLNGKEYKCKVSNKALPAPIEKTISKAKGQPREPQVYTLPPSRDELTKNQVSLTCLVKGFYPSDIAVEWESNGQPENNYKTTPPVLDSDGSFFLYSKLTVDKSRWQQGNVFSCSVMHEALKFHYTQKSLSLSP | 115000
Fc variant m5 (other, N-glycan with 2,6-sialic acid (variant co-expressed with human GT and ST in ExpiCHO-S cells), Fc fragment variant of IgG1) DKTHTCPPCPAPELLGGPSVFLFPPKPKDTLYITREPEVTCVVVDVSHEDPEVKFNWYVDGVEVHNAKTKPREQYNSTYRVVSVLTVLHQDWLNGKEYKCKVSNKALPAPIEKTISKAKGQPREPQVYTLPPSRDELTKNQVSLTCLVKGFYPSDIAVEWESNGQPENNYKTTPPVLDSDGSFFLYSKLTVDKSRWQQGNVFSCSVMHEALKFHYTQKSLSLSP | 347000
